Assays:
[1] = target: JGFN4 wild-type VHH (camelid (library from B cells of llamas and alpacas)); assay: crystal structure; crystals grown from the isolated monomeric species (~12 mg/ml) with 5-fold molar excess of fentanyl; sitting drop, ambient temperature
[2] = target: JGFN4 wild-type VHH (camelid (library from B cells of llamas and alpacas)); assay: crystal structure; crystals grown from the isolated (preformed) dimeric species (~12 mg/ml) with 5-fold molar excess of fentanyl; sitting drop, ambient temperature
[3] = target: JGFN4 N76D VHH (camelid (library from B cells of llamas and alpacas)); assay: as above

B1: JGFN4 wild-type VHH (VHH)
VHH: QVQLVESGGGLAQAGGSLQLSCAASGSTSRVNAMGWYRQTPGKERELVAAIDRSGATVYSESVRGRFTISKNDAKNIVWLQMNNLTTEDTAVYYCRSGVLGSWGLGTQVTVSS
stoichiometry N [1]: 2 | stoichiometry N [2]: 2

B2: JGFN4 N76D VHH (VHH)
VHH: QVQLVESGGGLAQAGGSLQLSCAASGSTSRVNAMGWYRQTPGKERELVAAIDRSGATVYSESVRGRFTISKNDAKDIVWLQMNNLTTEDTAVYYCRSGVLGSWGLGTQVTVSS
stoichiometry N [3]: 2

From publication PMC11321312
